# Laboratory results reported in patent publication US20160053014A1 (SORRENTO THERAPEUTICS, published 2016).
# Several values for one entry are separate records, joined by “and”; a condition that tells them apart may be missing. Equal values may be shown once.
# B1: 13G9 (antibody, V domains shown)
# VH: EVQLVESGGGVVQPGRSLRLSCAASGFTFSRYGMHWVRQSPGKGLEWVAGISYDGSDKYYADSVKGRFTISRANSKNTLFLQMNSLRAEDTAVYYCARARGLDYWGQGTTVTVSS
# VL: QAVLTQPASVSGSPGQSITISCTGTSSDIGSYNLVSWYQQHPGKAPKLIIYEVNKRPSGVSNRFSGSKSGNTASLTISGLQAEDEADYYCSSYRSINTVVFGGGTQLTVL
# notes: tested as human IgG
# B2: 14B11 (antibody, V domains shown)
# VH: QVQLVESGGGVVQPGMSLRLSCAASGFTFSSHAMHWVRQAPGKGLEWVAQIWSDGSNRYYSDSVKGRFTISRDQSKNTVSLQMNSLRAEDTAVYFCARDGQSMAPYAMDVWGQGTMVTVSS
# VL: DIVMTQTPLSLPVTPGEPASISCRSSQSLLHKNGNNYLDWYLQRPGQSPQLLIYLASNRASGVPDRFSGSGSGTDFTLEISRVQPEDVGVYYCMQGLQTPTFGPGTKVEIK
# notes: tested as human IgG
# B3: 14C11 (antibody, V domains shown)
# VH: QVQLQQSGPGLVKPSQTLSLTCAISGDTVSTNRAAWYWIRQSPSRGLEWLGRTHYRSRWLNDYAPSVKSRITINPDTSKNQFSLQLNSVTPEDTAVYYCARGAAGRAFDIWGQGTLVTVSS
# VL: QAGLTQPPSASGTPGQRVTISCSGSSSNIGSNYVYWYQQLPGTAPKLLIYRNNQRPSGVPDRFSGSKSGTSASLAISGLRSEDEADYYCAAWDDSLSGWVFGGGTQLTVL
# notes: tested as human IgG
# B4: 14D7 (antibody, V domains shown)
# VH: QVQLVQSGGGVVQPGRSLRLSCAASGFTFSSYGMHWVRQAPGKGLEWVAVISYDGSNKYYADSVKGRFTISRDNSKNTLYLQMNSLRAEDTAVYYCAKWGRRGAPDYWGQGTLVTVSS
# VL: ETTLTQSPGTLSVSPGERATLSCRASQSVSSNLAWYQQKPGQAPRLLIYGASTRATGIPARFSGSGSGTDFTLTISSLEPEDFAVYYCQQRNNWPLTFGGGTKVEIK
# notes: tested as human IgG
# B5: 14D9 (antibody, V domains shown)
# VH: EVQLVESGGGVVQPGRSLRLSCAASGFTFSSYAMHWVRQAPGKGLEWVAVISYDGSNKYYADSVKGRFTISRDNSKNTLYLQMNSLRAEDTAVYYCARSAWLDSWGQGTLVTVSS
# VL: QAGLTQPHSVSGSPGQSVTISCTGTSSDVGSYNHVSWYQQHPGKAPKLMIYDVSKRPSGVSNRFSGSKSGNTASLTISGLQAEDEADYYCSSYTSSSTYVFGTGTKVTVL
# notes: tested as human IgG
# B6: 14F11 (antibody, V domains shown)
# VH: EVQLVQSGAEVKKPGASVKVSCKASGSTFTNYYIHWVRQAPGQGLEWMGIINPSGGSIGSPQKFQGRVTMTRDTSTNTVYMELSSLRSEDTAVYYCASRSFGNDGVFDIWGQGTMVTVSS
# VL: LPVLTQPRSVSGSPRQSVTISCTGTSSDVGGYNYVSWYQQHPGKAPKLMIYDVSKRPSGVPDRFSGSKSGNTASLTISGLQAEDEAHYYCKSYTTSRTWVFGGGTKLTVL
# notes: tested as human IgG
# B7: 15H2 (antibody, V domains shown)
# VH: EVQLVESGGGVVQPGRSLRLSCAASGFTFSSYAMHWVRQAPGKGLEWVAVISYDGSKKYYADSVKGRFTISRDNSKNTLYLQMNSLRAEDTAVYYCARVGIAAAVGMDVWGQGTTVTVSS
# VL: DIVMTQTPLSLPVTLGQPASISCRSSQSLVYRDGNTYLNWFQQRPGQSPRRLIYKVSNRDSGVPDRFSGSGSGTDFTLKISRVEAEDVGVYYCMQGTHWPLTFGQGTKVEI
# notes: tested as human IgG; 181/182 '15H2' while the text calls the same pair '15H12'; also called 15H12
# B8: 16A8 (antibody, V domains shown)
# VH: QVQLVESGGGVVQPGRSLRLSCAASGFTFSNYGMHWVRQAPGKGLEWVATISYDGSNNYYAASVKGRFTVSRDNSTLYLQMNSLRAEDTAVYYCAGAIAAAGVWGQGTLVTVSS
# VL: LPVLTQPASVSGSPGQSITISCTGTSSDVGGYNYVSWYQQHPGKAPKLMIYDVSNRPSGVSDRFSGSKSGNTASLNISGLQPDDEAEYYCSSYRTKNTLVFGGGTKLTVL
# notes: tested as human IgG
# B9: 52A10 (antibody, V domains shown)
# VH: QVQLVQSGAEVKKPGASVKVSCKASGYTFTSYGISWVRQAPGQGLEWVGWISAYNGNTNYAQKLQGRVTMTTDTSTSTAYMELRSLRSDDTAVYYCARGSDYWGQGTLVTVSS
# VL: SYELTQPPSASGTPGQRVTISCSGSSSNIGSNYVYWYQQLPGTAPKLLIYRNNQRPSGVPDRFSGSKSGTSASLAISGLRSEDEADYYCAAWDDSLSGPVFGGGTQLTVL
# notes: tested as human IgG
# B10: 11D3 (antibody, V domains shown)
# VH: QVQLVQSGGGVVQPGRSLRLSCAASGFTFSNFGMHWVRQAPGKGLEWVAVISYDGSNKYYADSVKGRFTISRDNSKNTLYLQMNSLRAEDTAVYYCARNTVTYHDVWGQGTTVTVSS
# VL: QPVLTQPASVSGSPGQSITISCTGTSSDVGGYNYVSWYQQHPGKAPKLMINDVSNRPSGVSSRFSGSKSGNTASLTISGLQAEDEADYYCSSYTSSSTLVFGGGTKLTVL
# notes: tested as human IgG
# B11: 52B10 (antibody, V domains shown)
# VH: EVQLLESGGGLVQPGGSLRLSCAGSESTFGDSWLNWVRQAPGKGLEWVANINKDGSKKEYVESVKGRFTISRDNAKKSVYLQMNSLRVEDTAVYYCLLKGVWGQGTLVTVSS
# VL: AIQLTQSPSFLSASVGDRVTITCRASQGISSYLAWYQQKPGKAPKLLIYAASTLQSGVPSRFSGSGSGTEFTLTISSLQPEDFATYYCQQLNSYPITFGPGTKVDIK
# notes: tested as human IgG
# B12: 52C6 (antibody, V domains shown)
# VH: QVQLVESGGGLVQPGGSLRLSCAASGFTFDDYAMHWVRQAPGKGLQWVAVISHDGSAKYYADSVKGRFTISRDNAKNSLYLQMNSLRAEDTAVYYCARSRWGDNWGQGTLVTVSS
# VL: SYELMQPASVSGSPGQSITISCTGTSSDVGGYNYVSWYQQHPGKAPKLMIYDVSKRPSGVSNRFSGSKSGNTASLTISGLQAEDEADYYCSSYTSSSTPYVFGTGTKLTVL
# notes: tested as human IgG
# B13: 16E3 (antibody, V domains shown)
# VH: QVQLVESGGGVVQPGRSLRLSCAASGFTFSSNGMHWVRQAPGKGLEWVAAISYNGRNQYYADSLKGRFTISRDNSKNSLYLQMNSLRAEDTAVYYCATPAATLDYWGQGTLVTVSS
# VL: QSVLTQPASVSGSPGQSITISCTGTSSDVGGYNYVSWYQHHPGKAPKLMIYDVTYRPSGVSNRFSGSKSGNTASLTISGLQAEDEADYYCSSYTSSSTLVFGTGTKVTVL
# notes: tested as human IgG
# B14: 11F3 (antibody, V domains shown)
# VH: QVQLVESGGGVVQPGRSLRLYCAASGFIFSSYAIHWVRQAPGKGLEWVAVISYDGSKKYYADSVEGRFTISRDNSKNSLYLQMNSLRVDDTAVYYCAAHRQLGYWGQGTLVTVSS
# VL: QSVLTQPPSASGSPGQSVTISCTGTSSDVGGYNYVSWYQQHPGKAPKLMIYDVSKRPSGVSNRFSGSKSGNTASLTISGLQAEDEADYYCSSYTSSSTLVFGGGTKLTVL
# notes: tested as human IgG
# B15: 12B11 (antibody, V domains shown)
# VH: EVQLVESGGGLVKPGRSLRLSCTASGFPFGDYAMSWFRQAPGKGLEWVALISYDGRNNYYADSVKGRFTISRDNSKNTLYLQMNSLRAEDTAVFYCARDRMRGPGGRFYYYHAMDVWGQGTTVTVSS
# VL: SYELMQPPSVSRGLRQTATLTCAGTRNDVGNEGASWLQQHQGHPPKLLSYRDTNRPSGISDRFSASRSGNTASLTISGLQPEDEADYYCSAWDSSLRAWVFGGGTKLTVL
# notes: tested as human IgG; also called 14E10
# B16: 16B7 (antibody, V domains shown)
# VH: QVQLVESGAEVKKPGASVKVSCKASGYTFTSYYVHWVRQAPGQGLEWMGIINPSGGTTSYAQKFQGRVTMTRDTSTSTVYMELSSLRSEDTAVYYCVRDRRVVAATTPSAFDVWGQGTMVTVSS
# VL: QSVVTQPPSVSAAPGQRVTISCSGSTSNIGSNYVSWYHQLPGTAPKLLVYHNDKRPSGIPDRFSGSKSGTSATLGITGLQTGDEADYYCGTWDSSLSVWVFGGGTKVTVL
# notes: tested as human IgG
# B17: PC12 (antibody, V domains shown)
# VH: EVQLLESGAEVKKPGASVKVSCKASGYTFTSYYVHWVRQAPGQGLEWMGIINPSGGTTSYAQKFQGRVTMTRDTSTSTVYMELSSLRSEDTAVYYCVRDRRVVAATTPSAFDVWGQGTMVTVSS
# VL: QSVVTQPPSVSAAPGQKVTISCSGSSSNIGNNYVSWYQQLPGTAPKLLIYDNNKRPSGIPDRFSGSKSGTSATLGIVGLQTGDEADYYCATWDGSLSTFLFGPGTKLTVL
# notes: tested as human IgG
# B18: 52D6 (antibody, V domains shown)
# VH: EVQLLESGGGLVQPGRSLRLSCAASGFNFDAYAMHWVRQAPGKGLEWVSGISWNSGYIAYADSVEGRFAISRDNSKNTVFLQMNSLRAEDTAIYYCARDRWLSYWGQGTLVTVSS
# VL: QSVLTQPASVSGSPGQSITISCTGTSSDVGGYNYVSWYQQHPGKAPKLMIYDVSKRPSGVSNRFSGSKSGNTASLTVSGLQAEDEAEYYCSSYAGSNFVVFGGGTKLTVL
# notes: tested as human IgG
# B19: 52A9 (antibody, V domains shown)
# VH: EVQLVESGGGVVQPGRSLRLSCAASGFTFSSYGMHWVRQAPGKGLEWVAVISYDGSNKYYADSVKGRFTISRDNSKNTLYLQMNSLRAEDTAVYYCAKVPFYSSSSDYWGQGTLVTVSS
# VL: QSVVTQPASVSGSPGQSITISCTGTSSDVGGSKYVSWFQQHPGKAPKLMIYDVSNRPSGVSYRFSGSKSGNTASLTISGLQAEDEADYYCTSYTSSRTWVFGGGTKLTVL
# notes: tested as human IgG
# B20: 52H9 (antibody, V domains shown)
# VH: QVQLVESGGGVVQPGRSLRLSCAASGFTFSSYGMHWVRQAPGKGLEWVAVISYDGSNKYYADSVKGRFTISRDNSKNTLYLQMNSLRAEDTAVYYCAKLSGPTAKFDYWGQGTLVTVSS
# VL: QSVLTQPASVSGSPGQSVTISCTGTSRDVGGYNFVSWYQQHPGKAPKLMIYDVSNRPSGVSNRFTGSKSGNTASLTISGLQAEDEADYHCSSYRRGDTLVFGGGTKLTVL
# notes: tested as human IgG
# Target: T1, human CXCR5 (human, UniProt P32302 1-372)
# T1 construct: whole, on cells; also called hu-CHO; CHO-CXCR5 cells
# T1 sequence (looked up): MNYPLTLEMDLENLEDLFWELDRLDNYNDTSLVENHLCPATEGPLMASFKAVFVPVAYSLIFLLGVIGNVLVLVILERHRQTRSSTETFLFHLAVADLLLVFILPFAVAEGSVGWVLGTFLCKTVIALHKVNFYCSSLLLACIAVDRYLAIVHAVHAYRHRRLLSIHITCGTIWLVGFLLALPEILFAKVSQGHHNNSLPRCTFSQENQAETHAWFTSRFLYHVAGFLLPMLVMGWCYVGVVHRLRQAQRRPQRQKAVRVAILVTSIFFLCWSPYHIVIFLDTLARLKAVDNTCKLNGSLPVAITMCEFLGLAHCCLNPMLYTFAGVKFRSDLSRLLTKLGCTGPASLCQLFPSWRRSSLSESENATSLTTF
# Assay: flow cytometry on CHO-CXCR5 cells, IgG titration
# Description: This example describes a cellular binding assay to determine the EC₅₀ for anti-CXCR5 antibodies binding to human CXCR5. […] In this example, CHO-CXCR5 cells were lifted from culture flasks using non-enzymatic Cell Dissociation Buffer—PBS based (Life Technologies #13151-014). Cells were resuspended in FACS Buffer (2% Fetal Bovine Serum in PBS) at 1×10⁶ cells/ml and […] were aliquoted into the wells of a 96-well plate. Plated cells were spun down and the supernatant discarded. Cells were resuspended in 30 μl FACS Buffer serially diluted concentrations of CXCR5 IgG in triplicate. Plates were incubated for 1 hr at 4° C. and then washed 2× with FACS Buffer. Cells were resuspended in 50 μl goat anti-human IgG (γ-chain specific)-PE conjugated secondary antibody (Southern Biotech #2040-09) diluted 1:500 in FACS Buffer. Cells were further incubated for 30 min at 4° C. and then washed 1× with FACS Buffer. The cells were resuspended in a final volume of 30 μl FACS Buffer and analyzed using the Intellicyt Flow Cytometer. Median fluorescence in the FL-2H channel was determined using FlowJo software and EC₅₀ value was determined by plotting the data in GraphPad Prism and analyzing using a variable slope non-linear regression.
row,Binder,EC50
1,B1,3 nM
2,B2,10 nM
3,B3,21 nM
4,B4,4 nM
5,B5,22 nM
6,B6,3.8 nM
7,B7,6.1 nM
8,B8,2.3 nM
9,B9,0.5 nM and 0.54 nM
10,B10,2.7 nM
11,B11,0.5 nM and 0.46 nM
12,B12,3 nM and 2.8 nM
13,B13,250 nM
14,B14,13 nM
15,B15,53 nM and 57 nM
16,B16,88 nM
17,B17,4.2 nM
18,B18,24 nM
19,B19,31 nM
20,B20,4 nM
